Experimental data as given in publication PMC12663325, “Structural insights into mechanisms of zinc scavenging by the Candida albicans zincophore Pra1” (Nature Communications, 2025).

Target: the molecule itself
Test: cryo-EM structure; Pra1:Zn2+ complex; 20 mM Tris-HCl pH 8.0, 150 mM NaCl, 1 mM ZnSO4, 0.05% BSA as additive; C1 map, 2.5 Å

B1: Candida albicans Pra1, recombinant wild type (full-length excluding the signal peptide) (natural protein)
chain: APVTVTRFVDASPTGYDWRADWVKGFPIDSSCNATQYNQLSTGLQEAQLLAEHARDHTLRFGSKSPFFRKYFGNETASAEVVGHFDNVVGADKSSILFLCDDLDDKCKNDGWAGYWRGSNHSDQTIICDLSFVTRRYLTQLCSSGYTVSKSKTNIFWAGDLLHRFWHLKSIGQLVIEHYADTYEEVLELAQENSTYAVRNSNSLIYYALDVYAYDVTIPGEGCNGDGTSYKKSDFSSFEDSDSGSDSGASSTASSSHQHTDSNPSATTDANSHCHTHADGEVHC
modifications: N-linked glycosylation at Asn 48, Asn 89, Asn 135 and Asn 208; three intramolecular disulfide bonds
notes: Pra1 of Candida albicans, codon-optimized full-length PRA1 excluding the signal peptide; the precursor is 299 amino acids including its N-terminal signal peptide; residues 31-251 are seen in the cryo-EM maps; A TEV protease site stood between the His-tag and Pra1; also called zincophore Pra1; wild-type Pra1; not shown: His-tag, N-terminal, cleaved
  stoichiometry N: 6
